T1: recombinant soluble human IL-6 receptor (SR344) (human, UniProt P08887 20-344, biotinylated (sites not given) where immobilized via streptavidin or used in phage ELISA)
T1 construct: also called soluble IL-6 receptor; membrane-type IL-6 receptor (when biotinylated and immobilized on the chip)
T1 sequence (looked up): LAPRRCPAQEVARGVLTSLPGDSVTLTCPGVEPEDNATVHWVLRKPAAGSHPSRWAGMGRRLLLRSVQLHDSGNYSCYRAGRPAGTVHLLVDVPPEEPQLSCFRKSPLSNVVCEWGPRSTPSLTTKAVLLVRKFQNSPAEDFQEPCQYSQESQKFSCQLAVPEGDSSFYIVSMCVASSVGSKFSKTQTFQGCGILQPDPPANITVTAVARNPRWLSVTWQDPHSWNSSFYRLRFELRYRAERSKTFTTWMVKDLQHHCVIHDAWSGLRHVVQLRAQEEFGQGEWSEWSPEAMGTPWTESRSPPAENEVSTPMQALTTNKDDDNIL


Tests used:
[1] = target: T1, recombinant soluble human IL-6 receptor …; assay: SPR Biacore T100, antibody on protein A/G chip, SR344 analyte, pH 7.4, 37 C
Protocol: (§1) Kinetic analysis of antigen-antibody reactions at pH 7.4 and pH 5.8 was carried out using a Biacore T100™ surface plasmon resonance system (GE Healthcare) for the four types of antibodies prepared: WT-IgG1, H54/L28-IgG1, H170/L82-IgG1, and Fv4-IgG1 (buffer: 10 mM MES (pH 7.4 or pH 5.8), 150 mM NaCl, 0.05% Surfactant P20 (polyoxyethelene sorbitan monolaurate)). The antibodies were bound to a sensor chip on which recomb-protein A/G (Pierce) was immobilized by amine coupling, and SR344 adjusted to an appropriate concentration was injected therein as an analyte. The association with and dissociation from SR344 of each type of antibody were observed on a real-time basis. All the measurements were carried out at 37° C. Association rate constants kₐ (1/Ms) and dissociation rate constants kd (1/s) were calculated using Biacore T100™ Evaluation Software (GE Healthcare), and dissociation constants KD (M) were calculated based on those values (Table 17).

[2] = target: T1, recombinant soluble human IL-6 receptor …; assay: SPR Biacore T100, antibody on protein A/G chip, SR344 analyte, pH 5.8, 37 C
Protocol: as §1

[3] = target: T1, recombinant soluble human IL-6 receptor …; assay: SPR Biacore T100, antibody on protein A/G chip, SR344 analyte, 37 C, ratio of pH 5.8 to pH 7.4
Protocol: as §1

[4] = target: T1, recombinant soluble human IL-6 receptor …; assay: SPR Biacore T100, biotinylated SR344 on streptavidin chip (model of membrane-type IL-6 receptor), antibody as analyte, 37 C
Protocol: (§2) Binding to the membrane-type IL-6 receptor was evaluated by evaluating binding to the IL-6 receptor immobilized on a sensor chip. SR344 was biotinylated in accordance with a method known among persons with ordinary skill in the art, and the biotinylated SR344 was immobilized on the sensor chip via streptavidin using the affinity between streptavidin and biotin. All the measurements were carried out at 37° C. The mobile phase buffer was 10 mM MES (pH 5.8), 150 mM NaCl and 0.05% TWEEN® 20 (polyoxyethelene sorbitan monolaurate).
(§3) The pH-dependently-binding clones were injected under the condition of pH 7.4 to allow them to bind to SR344, and then, the pH-dependent dissociation of each clone at the pH of the mobile phase, pH 5.8, was observed. The results are shown in FIG. 21 (results for Fv1-M71, Fv1-M73, Fv3-M71, and Fv3-M73 are shown in FIG. 21, while results for other clones are shown in FIGS. 17 and 19). Analyses were carried out in the same manner as in Example 10 and the pH dependencies of the dissociation rate constants of all of the eleven types of clones are shown in Table 12.

[5] = target: T1, recombinant soluble human IL-6 receptor …; assay: SPR Biacore T100, biotinylated SR344 on streptavidin chip (model of membrane-type IL-6 receptor), antibody as analyte, bound at pH 7.4, dissociation at pH 7.4, 37 C
Protocol: as §2, §3

[6] = target: T1, recombinant soluble human IL-6 receptor …; assay: SPR Biacore T100, antibody captured by anti-IgG gamma chain F(ab)2, SR344 analyte, pH 7.4, 37 C
Protocol: (§4) Kinetic analyses of antigen-antibody reactions at pH 7.4 were carried out on the four types of antibodies, i.e., the humanized PM1 antibody (wild type: WT), and […], H3pI/L73-IgG1, Fv2-IgG1, and Fv4-IgG1 constructed in Examples 2 and 10, by using a Biacore T100™ surface plasmon resonance system (GE Healthcare) (buffer: 10 mM MES (pH 7.4), 150 mM NaCl, 0.05% TWEEN® 20 (polyoxyethelene sorbitan monolaurate)). Each antibody was bound on a sensor chip on which an anti-IgG γ chain specific F(ab)₂ (Pierce) was immobilized by amine coupling, and then, SR344 adjusted to a concentration of 9.8 to 40 nM was injected thereto as an analyte. The association to and dissociation from SR344 were observed on a real-time basis for the pH-dependent-binding clones. All the measurements were carried out at 37° C. Association rate constants kₐ (1/Ms) and dissociation rate constants kd (1/s) were calculated using Biacore T100™ Evaluation Software (GE Healthcare), and dissociation constants KD (M) were calculated on the basis of those values (Table 7).
(§5) The association to and dissociation from SR344 were observed on a real-time basis using the same method as Example 10 for the eleven types of antibodies, humanized PM1 antibody (wild type: WT) and H3pI/L73-IgG1, Fv1-M71, Fv1-M73, Fv2-IgG1, Fv3-M71, Fv3-M73, Fv4-IgG1, Fv4-IgG2, Fv4-M58, and Fv4-M73, constructed as described above. The association rate constants kₐ (1/Ms) and dissociation rate constants kd. (1/s) were calculated by analysis in the same manner, and the dissociation constants KD (M) were calculated on the basis of those values (Table 11).

[7] = target: T1, recombinant soluble human IL-6 receptor …; assay: SPR Biacore T100, biotinylated SR344 on streptavidin chip (model of membrane-type IL-6 receptor), antibody as analyte, bound at pH 7.4, dissociation at pH 5.8, 37 C
Protocol: as §2, §3

[8] = target: T1, recombinant soluble human IL-6 receptor …; assay: SPR Biacore T100, antibody captured by anti-IgG gamma chain F(ab)2, SR344 analyte, pH 7.4, 37 C; remark: listed apart in the source
Protocol: as §4, §5

[9] = target: T1, recombinant soluble human IL-6 receptor …; assay: SPR Biacore T100, biotinylated SR344 on streptavidin chip (model of membrane-type IL-6 receptor), antibody as analyte, bound at pH 7.4, dissociation at pH 5.8, 37 C; remark: listed apart in the source
Protocol: as §2, §3

[10] = target: T1, recombinant soluble human IL-6 receptor …; assay: SPR Biacore T100, biotinylated SR344 on streptavidin chip (model of membrane-type IL-6 receptor), antibody as analyte, bound at pH 7.4, dissociation at pH 7.4, 37 C; remark: listed apart in the source
Protocol: as §2, §3

[11] = target: T1, recombinant soluble human IL-6 receptor …; assay: SPR Biacore T100, biotinylated SR344 on streptavidin chip (model of membrane-type IL-6 receptor), antibody as analyte, 37 C; remark: listed apart in the source
Protocol: as §2, §3

Kd [1] [nM]	koff [1] [s⁻¹]	kon [1] [M⁻¹ s⁻¹]	Kd [2] [nM]	koff [2] [s⁻¹]	kon [2] [M⁻¹ s⁻¹]	KD (pH 5.8)/KD (pH 7.4) [3]	kd (pH 5.8)/kd (pH 7.4) [3]	kd (pH 5.8)/kd (pH 7.4) [4]	koff [5] [s⁻¹]	Kd [6] [nM]	koff [6] [s⁻¹]	kon [6] [M⁻¹ s⁻¹]	koff [7] [s⁻¹]	Kd [8] [nM]	koff [8] [s⁻¹]	kon [8] [M⁻¹ s⁻¹]	koff [9] [s⁻¹]	koff [10] [s⁻¹]	kd (pH 5.8)/kd (pH 7.4) [11]	Binder
1.7	0.0014	830000	1.1	0.0027	2.4e+06	0.7	2	–	–	–	–	–	–	–	–	–	–	–	–	H54/L28-IgG1 (antibody, V domains shown, IgG1) VH: QVQLQESGPGLVKPSETLSLTCAVSGYSISDDQAWSWVRQPPGEGLEWIGYISYSGITNYNPSLKGRVTISRDTSKNQFSLKLSSVTAADTAAYYCARSLARTTAMDYWGEGTLVTVSS VL: DIQMTQSPSSLSASVGDSVTITCQASQDISSYLNWYQQKPGKAPELLIYYGSELHSGVPSRFSGSGSGTDFTFTISSLEAEDAATYYCQQGNSLPYTFGQGTKVEIE
–	–	–	–	–	–	–	–	17.6	0.00054	1.4	0.0011	830000	0.0095	1.4	0.0011	830000	0.0095	0.00054	17.6	Fv4-M58 (antibody, VH3-M58 / VL3-CK) heavy: QVQLQESGPGLVKPSETLSLTCAVSGHSISHDHAWSWVRQPPGEGLEWIGFISYSGITNYNPSLQGRVTISRDNSKNTLYLQMNSLRAEDTAVYYCARSLARTTAMDYWGEGTLVTVSSASTKGPSVFPLAPSSKSTSGGTAALGCLVKDYFPEPVTVSWNSGALTSGVHTFPAVLQSSGLYSLSSVVTVPSSNFGTQTYTCNVDHKPSNTKVDKTVERKSCVECPPCPAPPVAGPSVFLFPPKPKDTLMISRTPEVTCVVVDVSQEDPEVQFNWYVDGVEVHNAKTKPREEQFNSTFRVVSVLTVVHQDWLNGKEYKCKVSNKGLPAPIEKTISKTKGQPREPQVYTLPPSQEEMTKNQVSLTCLVKGFYPSDIAVEWESNGQPENNYKTTPPMLDSDGSFFLYSKLTVDKSRWQEGNVFSCSVMHEALHNHYTQKSLSLSP light: DIQMTQSPSSLSASVGDSVTITCQASTDISSHLNWYQQKPGKAPELLIYYGSHLLSGVPSRFSGSGSGTDFTFTISSLEAEDAATYYCGQGNRLPYTFGQGTKVEIERTVAAPSVFIFPPSDEQLKSGTASVVCLLNNFYPREAKVQWKVDNALQSGNSQESVTEQDSKDSTYSLSSTLTLSKADYEKHKVYACEVTHQGLSSPVTKSFNRGEC
–	–	–	–	–	–	–	–	17	0.001	1.3	0.0012	960000	0.018	1.3	0.0012	960000	0.018	0.001	17	Fv4-IgG2 (antibody, VH3-IgG2deltaGK / VL3-CK; also called Fv4-IgG2deltaGK) heavy: QVQLQESGPGLVKPSETLSLTCAVSGHSISHDHAWSWVRQPPGEGLEWIGFISYSGITNYNPSLQGRVTISRDNSKNTLYLQMNSLRAEDTAVYYCARSLARTTAMDYWGEGTLVTVSSASTKGPSVFPLAPCSRSTSESTAALGCLVKDYFPEPVTVSWNSGALTSGVHTFPAVLQSSGLYSLSSVVTVPSSNFGTQTYTCNVDHKPSNTKVDKTVERKCCVECPPCPAPPVAGPSVFLFPPKPKDTLMISRTPEVTCVVVDVSHEDPEVQFNWYVDGVEVHNAKTKPREEQFNSTFRVVSVLTVVHQDWLNGKEYKCKVSNKGLPAPIEKTISKTKGQPREPQVYTLPPSREEMTKNQVSLTCLVKGFYPSDIAVEWESNGQPENNYKTTPPMLDSDGSFFLYSKLTVDKSRWQQGNVFSCSVMHEALHNHYTQKSLSLSP light: DIQMTQSPSSLSASVGDSVTITCQASTDISSHLNWYQQKPGKAPELLIYYGSHLLSGVPSRFSGSGSGTDFTFTISSLEAEDAATYYCGQGNRLPYTFGQGTKVEIERTVAAPSVFIFPPSDEQLKSGTASVVCLLNNFYPREAKVQWKVDNALQSGNSQESVTEQDSKDSTYSLSSTLTLSKADYEKHKVYACEVTHQGLSSPVTKSFNRGEC
